± gives the uncertainty stated by the source.

The data set can be described thus: abundance fitness (aPCA) (normalised: wild type 0, dead -1); higher = more abundant; growth selection in yeast, the domain comes from the species named. The following applies: Saccharomyces cerevisiae (strain ATCC 204508 / S288c).
In turn, “E3 ubiquitin-protein ligase RSP5 A347C, P39940” registered an abundance fitness of 0.08 ± 0.095.

As for “E3 ubiquitin-protein ligase RSP5 A347D, P39940”, the abundance fitness was -0.025 ± 0.084. Consider “E3 ubiquitin-protein ligase RSP5 A347E, P39940”, for which the abundance fitness was -0.034 ± 0.056.

“E3 ubiquitin-protein ligase RSP5 A347F, P39940” registered an abundance fitness of -0.067 ± 0.19. Turning to “E3 ubiquitin-protein ligase RSP5 A347G, P39940”, the abundance fitness was -0.043 ± 0.047. The substance “E3 ubiquitin-protein ligase RSP5 A347H, P39940” gave an abundance fitness of -0.048 ± 0.056. “E3 ubiquitin-protein ligase RSP5 A347K, P39940” yielded an abundance fitness of 0.008 ± 0.053.

On to “E3 ubiquitin-protein ligase RSP5 A347L, P39940”, for which the abundance fitness was -0.044 ± 0.045. The result for “E3 ubiquitin-protein ligase RSP5 A347M, P39940” reads 0.089 ± 0.064; that for “E3 ubiquitin-protein ligase RSP5 A347N, P39940”, -0.034 ± 0.059.

The substance “E3 ubiquitin-protein ligase RSP5 A347P, P39940” showed an abundance fitness of -0.115 ± 0.064. Substance “E3 ubiquitin-protein ligase RSP5 A347Q, P39940” came in with an abundance fitness of -0.063 ± 0.055. The figure for “E3 ubiquitin-protein ligase RSP5 A347R, P39940” is -0.031 ± 0.045. In turn, “E3 ubiquitin-protein ligase RSP5 A347V, P39940” displayed an abundance fitness of -0.044 ± 0.046. In turn, “E3 ubiquitin-protein ligase RSP5 A347W, P39940” had an abundance fitness of -0.316 ± 0.047. “E3 ubiquitin-protein ligase RSP5 A347Y, P39940” registered an abundance fitness of -0.128 ± 0.063. For the substance “E3 ubiquitin-protein ligase RSP5 D351A, P39940”, the abundance fitness is -0.731 ± 0.053. Regarding “E3 ubiquitin-protein ligase RSP5 D351C, P39940”, the abundance fitness was -0.256 ± 0.067.

Consider “E3 ubiquitin-protein ligase RSP5 D351E, P39940”, for which the abundance fitness is -0.488 ± 0.052.

For the substance “E3 ubiquitin-protein ligase RSP5 D351G, P39940”, the abundance fitness was -0.89 ± 0.046. The substance “E3 ubiquitin-protein ligase RSP5 D351H, P39940” displayed an abundance fitness of -0.574 ± 0.21.

The substance “E3 ubiquitin-protein ligase RSP5 D351K, P39940” showed an abundance fitness of -0.748 ± 0.084. The result for “E3 ubiquitin-protein ligase RSP5 D351L, P39940” reads -1.08 ± 0.059.

As for “E3 ubiquitin-protein ligase RSP5 D351M, P39940”, the abundance fitness is -0.772 ± 0.13. The figure for “E3 ubiquitin-protein ligase RSP5 D351P, P39940” is -1.24 ± 0.15. In the case of “E3 ubiquitin-protein ligase RSP5 D351Q, P39940”, the abundance fitness was -0.612 ± 0.21. “E3 ubiquitin-protein ligase RSP5 D351R, P39940” came in with an abundance fitness of -0.864 ± 0.05. Regarding “E3 ubiquitin-protein ligase RSP5 D351S, P39940”, the abundance fitness was -0.584 ± 0.057.

“E3 ubiquitin-protein ligase RSP5 D351T, P39940” displayed an abundance fitness of -0.966 ± 0.073. The figure for “E3 ubiquitin-protein ligase RSP5 D351V, P39940” is -1.24 ± 0.068; for “E3 ubiquitin-protein ligase RSP5 D351W, P39940” it is -1.28 ± 0.097; for “E3 ubiquitin-protein ligase RSP5 D361A, P39940” it is -0.269 ± 0.053.

In the case of “E3 ubiquitin-protein ligase RSP5 D361C, P39940”, the abundance fitness is -0.183 ± 0.1. With “E3 ubiquitin-protein ligase RSP5 D361E, P39940”, the abundance fitness was -0.266 ± 0.053. The figure for “E3 ubiquitin-protein ligase RSP5 D361G, P39940” is -0.534 ± 0.047. Consider “E3 ubiquitin-protein ligase RSP5 D361I, P39940”, for which the abundance fitness was -0.632 ± 0.15. The figure for “E3 ubiquitin-protein ligase RSP5 D361K, P39940” is -0.25 ± 0.06. The result for “E3 ubiquitin-protein ligase RSP5 D361L, P39940” reads -0.641 ± 0.056. The figure for “E3 ubiquitin-protein ligase RSP5 D361N, P39940” is -0.304 ± 0.085; for “E3 ubiquitin-protein ligase RSP5 D361P, P39940” it is -0.516 ± 0.12; for “E3 ubiquitin-protein ligase RSP5 D361Q, P39940” it is -0.305 ± 0.086. In the case of “E3 ubiquitin-protein ligase RSP5 D361S, P39940”, the abundance fitness is -0.409 ± 0.054. The substance “E3 ubiquitin-protein ligase RSP5 D361T, P39940” showed an abundance fitness of -0.562 ± 0.065. In the case of “E3 ubiquitin-protein ligase RSP5 D361V, P39940”, the abundance fitness is -0.607 ± 0.043.

“E3 ubiquitin-protein ligase RSP5 D361Y, P39940”: the abundance fitness was -0.594 ± 0.062. The result for “E3 ubiquitin-protein ligase RSP5 E332A, P39940” reads 0.03 ± 0.051; that for “E3 ubiquitin-protein ligase RSP5 E332C, P39940”, -0.116 ± 0.08. Regarding “E3 ubiquitin-protein ligase RSP5 E332D, P39940”, the abundance fitness came out at 0.038 ± 0.074.

On to “E3 ubiquitin-protein ligase RSP5 E332F, P39940”, for which the abundance fitness was -0.165 ± 0.12.

Take “E3 ubiquitin-protein ligase RSP5 E332G, P39940”: the abundance fitness was -0.066 ± 0.046. The figure for “E3 ubiquitin-protein ligase RSP5 E332H, P39940” is -0.551 ± 0.13. The figure for “E3 ubiquitin-protein ligase RSP5 E332I, P39940” is -0.225 ± 0.087; for “E3 ubiquitin-protein ligase RSP5 E332K, P39940” it is -0.046 ± 0.064; for “E3 ubiquitin-protein ligase RSP5 E332L, P39940” it is -0.459 ± 0.051. In the case of “E3 ubiquitin-protein ligase RSP5 E332M, P39940”, the abundance fitness is -0.093 ± 0.069. In the case of “E3 ubiquitin-protein ligase RSP5 E332P, P39940”, the abundance fitness is -0.128 ± 0.057. “E3 ubiquitin-protein ligase RSP5 E332Q, P39940” had an abundance fitness of -0.359 ± 0.061. The figure for “E3 ubiquitin-protein ligase RSP5 E332R, P39940” is -0.36 ± 0.043; for “E3 ubiquitin-protein ligase RSP5 E332S, P39940” it is -0.179 ± 0.053. “E3 ubiquitin-protein ligase RSP5 E332T, P39940”: the abundance fitness was -0.14 ± 0.069. As for “E3 ubiquitin-protein ligase RSP5 E332V, P39940”, the abundance fitness is -0.07 ± 0.047. The result for “E3 ubiquitin-protein ligase RSP5 E332W, P39940” reads -0.493 ± 0.046; that for “E3 ubiquitin-protein ligase RSP5 E332Y, P39940”, -0.184 ± 0.066.

“E3 ubiquitin-protein ligase RSP5 E338A, P39940” had an abundance fitness of -0.333 ± 0.056.

With “E3 ubiquitin-protein ligase RSP5 E338C, P39940”, the abundance fitness is -0.476 ± 0.16. Regarding “E3 ubiquitin-protein ligase RSP5 E338D, P39940”, the abundance fitness was -0.022 ± 0.13. “E3 ubiquitin-protein ligase RSP5 E338F, P39940” had an abundance fitness of -0.73 ± 0.14. With “E3 ubiquitin-protein ligase RSP5 E338G, P39940”, the abundance fitness was -0.454 ± 0.045.

In the case of “E3 ubiquitin-protein ligase RSP5 E338H, P39940”, the abundance fitness was -0.349 ± 0.1.

The substance “E3 ubiquitin-protein ligase RSP5 E338K, P39940” came in with an abundance fitness of -0.463 ± 0.049.

As to “E3 ubiquitin-protein ligase RSP5 E338L, P39940”, the abundance fitness was -0.499 ± 0.044. The substance “E3 ubiquitin-protein ligase RSP5 E338M, P39940” registered an abundance fitness of -0.402 ± 0.047. For the substance “E3 ubiquitin-protein ligase RSP5 E338N, P39940”, the abundance fitness was -0.501 ± 0.09.

On to “E3 ubiquitin-protein ligase RSP5 E338P, P39940”, for which the abundance fitness was -0.874 ± 0.083. With “E3 ubiquitin-protein ligase RSP5 E338Q, P39940”, the abundance fitness is -0.027 ± 0.065. “E3 ubiquitin-protein ligase RSP5 E338R, P39940” had an abundance fitness of -0.626 ± 0.045. In the case of “E3 ubiquitin-protein ligase RSP5 E338S, P39940”, the abundance fitness was -0.19 ± 0.046. In the case of “E3 ubiquitin-protein ligase RSP5 E338V, P39940”, the abundance fitness was -0.278 ± 0.053. For the substance “E3 ubiquitin-protein ligase RSP5 E338W, P39940”, the abundance fitness was -0.978 ± 0.11. The substance “E3 ubiquitin-protein ligase RSP5 E338Y, P39940” yielded an abundance fitness of -0.632 ± 0.075. The substance “E3 ubiquitin-protein ligase RSP5 E344A, P39940” showed an abundance fitness of -0.144 ± 0.045. The figure for “E3 ubiquitin-protein ligase RSP5 E344C, P39940” is -0.264 ± 0.097; for “E3 ubiquitin-protein ligase RSP5 E344D, P39940” it is 0.149 ± 0.087; for “E3 ubiquitin-protein ligase RSP5 E344F, P39940” it is -0.309 ± 0.072. Substance “E3 ubiquitin-protein ligase RSP5 E344G, P39940” displayed an abundance fitness of -0.038 ± 0.045.

Consider “E3 ubiquitin-protein ligase RSP5 E344H, P39940”, for which the abundance fitness was 0.116 ± 0.16. The figure for “E3 ubiquitin-protein ligase RSP5 E344I, P39940” is -0.215 ± 0.091; for “E3 ubiquitin-protein ligase RSP5 E344K, P39940” it is -0.222 ± 0.063.

On to “E3 ubiquitin-protein ligase RSP5 E344L, P39940”, for which the abundance fitness was -0.31 ± 0.047.

“E3 ubiquitin-protein ligase RSP5 E344M, P39940”: the abundance fitness is -0.103 ± 0.06. The figure for “E3 ubiquitin-protein ligase RSP5 E344N, P39940” is -0.032 ± 0.081.

The values above are taken from the Human Domainome abundance scans (Beltran et al. 2025).
